For the series the following is noted: Pseudomonas aeruginosa (strain ATCC 15692 / DSM 22644 / CIP 104116 / JCM 14847 / LMG 12228 / 1C / PRS 101 / PAO1), 25 °C, GdnHCl, CD, Sodium acetate 20 mM, whole UniProt chain shown.

B1: Cytochrome c-551 wild type, P00099 (protein)
chain: MKPYALLSLLATGTLLAQGAWAEDPEVLFKNKGCVACHAIDTKMVGPAYKDVAAKFAGQAGAEAELAQRIKNGSQGVWGPIPMPPNAVSDDEAQTLAKWVLSQK
In the case of B1, under “pH 3.6”, the denaturant m value is 2.88 kcal/mol/M, the “denaturant midpoint (higher = more stable)” value is 1.44 M and the unfolding free energy worked out at 4.14 kcal/mol. In addition, where the note is “pH 5”, the denaturant m value was 2.64 kcal/mol/M, the “denaturant midpoint (higher = more stable)” value worked out at 2.06 M and the unfolding free energy worked out at 5.44 kcal/mol.
